According to US20110086019A1 (DOMANTIS, published 2011):

Legend:
[1] = biological target: human TNFR1 (soluble recombinant protein) (human) (UniProt P19438); assay: phage ELISA on plate coated with 1 nM TNFR1, anti-M13-HRP; phage treated 1 h at room temperature with 100 µg/ml trypsin; phage input 4.51E+10
[2] = biological target: human TNFR1 (soluble recombinant protein) (human) (UniProt P19438); assay: phage ELISA on plate coated with 1 nM TNFR1, anti-M13-HRP; 0 µg/ml trypsin; phage input 2.26E+10
[3] = biological target: human TNFR1 (soluble recombinant protein) (human) (UniProt P19438); assay: phage ELISA on plate coated with 1 nM TNFR1, anti-M13-HRP; 0 µg/ml trypsin; phage input 3.52E+08
[4] = biological target: human TNFR1 (soluble recombinant protein) (human) (UniProt P19438); assay: phage ELISA on plate coated with 1 nM TNFR1, anti-M13-HRP; phage treated 1 h at room temperature with 100 µg/ml trypsin; phage input 5.64E+09
[5] = biological target: human TNFR1 (soluble recombinant protein) (human) (UniProt P19438); assay: phage ELISA on plate coated with 1 nM TNFR1, anti-M13-HRP; 0 µg/ml trypsin; phage input 5.64E+09
[6] = biological target: human TNFR1 (soluble recombinant protein) (human) (UniProt P19438); assay: phage ELISA on plate coated with 1 nM TNFR1, anti-M13-HRP; phage treated 1 h at room temperature with 10 µg/ml trypsin; phage input 3.52E+08
[7] = biological target: human TNFR1 (soluble recombinant protein) (human) (UniProt P19438); assay: phage ELISA on plate coated with 1 nM TNFR1, anti-M13-HRP; 0 µg/ml trypsin; phage input 1.41E+09
[8] = biological target: human TNFR1 (soluble recombinant protein) (human) (UniProt P19438); assay: phage ELISA on plate coated with 1 nM TNFR1, anti-M13-HRP; 0 µg/ml trypsin; phage input 7.05E+08
[9] = biological target: human TNFR1 (soluble recombinant protein) (human) (UniProt P19438); assay: phage ELISA on plate coated with 1 nM TNFR1, anti-M13-HRP; phage treated 1 h at room temperature with 100 µg/ml trypsin; phage input 2.26E+10
[10] = biological target: human TNFR1 (soluble recombinant protein) (human) (UniProt P19438); assay: phage ELISA on plate coated with 1 nM TNFR1, anti-M13-HRP; phage treated 1 h at room temperature with 100 µg/ml trypsin; phage input 1.13E+10
[11] = biological target: human TNFR1 (soluble recombinant protein) (human) (UniProt P19438); assay: phage ELISA on plate coated with 1 nM TNFR1, anti-M13-HRP; phage treated 1 h at room temperature with 10 µg/ml trypsin; phage input 4.51E+10
[12] = biological target: human TNFR1 (soluble recombinant protein) (human) (UniProt P19438); assay: phage ELISA on plate coated with 1 nM TNFR1, anti-M13-HRP; phage treated 1 h at room temperature with 1 mg/ml trypsin; phage input 4.51E+10
[13] = biological target: human TNFR1 (soluble recombinant protein) (human) (UniProt P19438); assay: phage ELISA on plate coated with 1 nM TNFR1, anti-M13-HRP; phage treated 1 h at room temperature with 1 mg/ml trypsin; phage input 1.13E+10
[14] = biological target: human TNFR1 (soluble recombinant protein) (human) (UniProt P19438); assay: phage ELISA on plate coated with 1 nM TNFR1, anti-M13-HRP; phage treated 1 h at room temperature with 1 mg/ml trypsin; phage input 1.41E+09
[15] = biological target: human TNFR1 (soluble recombinant protein) (human) (UniProt P19438); assay: phage ELISA on plate coated with 1 nM TNFR1, anti-M13-HRP; phage treated 1 h at room temperature with 100 µg/ml trypsin; phage input 1.41E+09
[16] = biological target: human TNFR1 (soluble recombinant protein) (human) (UniProt P19438); assay: phage ELISA on plate coated with 1 nM TNFR1, anti-M13-HRP; phage treated 1 h at room temperature with 1 mg/ml trypsin; phage input 5.64E+09
[17] = biological target: human TNFR1 (soluble recombinant protein) (human) (UniProt P19438); assay: phage ELISA on plate coated with 1 nM TNFR1, anti-M13-HRP; phage treated 1 h at room temperature with 1 mg/ml trypsin; phage input 2.26E+10
[18] = biological target: human TNFR1 (soluble recombinant protein) (human) (UniProt P19438); assay: phage ELISA on plate coated with 1 nM TNFR1, anti-M13-HRP; phage treated 1 h at room temperature with 10 µg/ml trypsin; phage input 2.82E+09
[19] = biological target: human TNFR1 (soluble recombinant protein) (human) (UniProt P19438); assay: phage ELISA on plate coated with 1 nM TNFR1, anti-M13-HRP; phage treated 1 h at room temperature with 10 µg/ml trypsin; phage input 5.64E+09
[20] = biological target: human TNFR1 (soluble recombinant protein) (human) (UniProt P19438); assay: phage ELISA on plate coated with 1 nM TNFR1, anti-M13-HRP; phage treated 1 h at room temperature with 1 mg/ml trypsin; phage input 3.52E+08
[21] = biological target: human TNFR1 (soluble recombinant protein) (human) (UniProt P19438); assay: phage ELISA on plate coated with 1 nM TNFR1, anti-M13-HRP; phage treated 1 h at room temperature with 100 µg/ml trypsin; phage input 3.52E+08
[22] = biological target: human TNFR1 (soluble recombinant protein) (human) (UniProt P19438); assay: phage ELISA on plate coated with 1 nM TNFR1, anti-M13-HRP; phage treated 1 h at room temperature with 1 mg/ml trypsin; phage input 2.82E+09
[23] = biological target: human TNFR1 (soluble recombinant protein) (human) (UniProt P19438); assay: phage ELISA on plate coated with 1 nM TNFR1, anti-M13-HRP; phage treated 1 h at room temperature with 1 mg/ml trypsin; phage input 7.05E+08
[24] = biological target: human TNFR1 (soluble recombinant protein) (human) (UniProt P19438); assay: phage ELISA on plate coated with 1 nM TNFR1, anti-M13-HRP; phage treated 1 h at room temperature with 100 µg/ml trypsin; phage input 7.05E+08
[25] = biological target: human TNFR1 (soluble recombinant protein) (human) (UniProt P19438); assay: phage ELISA on plate coated with 1 nM TNFR1, anti-M13-HRP; phage treated 1 h at room temperature with 10 µg/ml trypsin; phage input 7.05E+08
[26] = biological target: human TNFR1 (soluble recombinant protein) (human) (UniProt P19438); assay: phage ELISA on plate coated with 1 nM TNFR1, anti-M13-HRP; 0 µg/ml trypsin; phage input 4.51E+10
[27] = biological target: human TNFR1 (soluble recombinant protein) (human) (UniProt P19438); assay: phage ELISA on plate coated with 1 nM TNFR1, anti-M13-HRP; phage treated 1 h at room temperature with 100 µg/ml trypsin; phage input 2.82E+09
[28] = biological target: human TNFR1 (soluble recombinant protein) (human) (UniProt P19438); assay: phage ELISA on plate coated with 1 nM TNFR1, anti-M13-HRP; phage treated 1 h at room temperature with 10 µg/ml trypsin; phage input 2.26E+10
[29] = biological target: human TNFR1 (soluble recombinant protein) (human) (UniProt P19438); assay: phage ELISA on plate coated with 1 nM TNFR1, anti-M13-HRP; 0 µg/ml trypsin; phage input 1.13E+10
[30] = biological target: human TNFR1 (soluble recombinant protein) (human) (UniProt P19438); assay: phage ELISA on plate coated with 1 nM TNFR1, anti-M13-HRP; phage treated 1 h at room temperature with 10 µg/ml trypsin; phage input 1.41E+09
[31] = biological target: human TNFR1 (soluble recombinant protein) (human) (UniProt P19438); assay: phage ELISA on plate coated with 1 nM TNFR1, anti-M13-HRP; 0 µg/ml trypsin; phage input 2.82E+09
[32] = biological target: human TNFR1 (soluble recombinant protein) (human) (UniProt P19438); assay: phage ELISA on plate coated with 1 nM TNFR1, anti-M13-HRP; phage treated 1 h at room temperature with 10 µg/ml trypsin; phage input 1.13E+10
TNFR1-FC fusion = biological target: T1, TNFR1-FC fusion (human, UniProt P19438 22-211); assay: human TNFR1 receptor binding assay: inhibition of the binding of TNF-alpha (10 ng/ml) to bead-captured TNFR1-Fc; four replicates
T1 construct: not shown: Fc part not described (captured with goat anti-human IgG (H&L))
T1 sequence (looked up): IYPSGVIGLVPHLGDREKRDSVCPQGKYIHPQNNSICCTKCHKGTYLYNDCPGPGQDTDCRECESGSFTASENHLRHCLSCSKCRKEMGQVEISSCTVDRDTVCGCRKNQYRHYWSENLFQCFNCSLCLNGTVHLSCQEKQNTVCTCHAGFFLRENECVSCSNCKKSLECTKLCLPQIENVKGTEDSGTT

Molecule: DOM1h-131 phage
- phage ELISA signal [1]: 0.418
- phage ELISA signal [2]: 0.944
- phage ELISA signal [3]: 0.577
- phage ELISA signal [4]: 0.196
- phage ELISA signal [5]: 0.962
- phage ELISA signal [6]: 0.213
- phage ELISA signal [7]: 0.85
- phage ELISA signal [8]: 0.705
- phage ELISA signal [9]: 0.377
- phage ELISA signal [10]: 0.284
- phage ELISA signal [11]: 0.784
- phage ELISA signal [12]: 0.284
- phage ELISA signal [13]: 0.183
- phage ELISA signal [14]: 0.089
- phage ELISA signal [15]: 0.115
- phage ELISA signal [16]: 0.133
- phage ELISA signal [17]: 0.229
- phage ELISA signal [18]: 0.573
- phage ELISA signal [19]: 0.695
- phage ELISA signal [20]: 0.08
- phage ELISA signal [21]: 0.084
- phage ELISA signal [22]: 0.114
- phage ELISA signal [23]: 0.084
- phage ELISA signal [24]: 0.084
- phage ELISA signal [25]: 0.286
- phage ELISA signal [26]: 0.916
- phage ELISA signal [27]: 0.141
- phage ELISA signal [28]: 0.802
- phage ELISA signal [29]: 0.949
- phage ELISA signal [30]: 0.409
- phage ELISA signal [31]: 0.946
- phage ELISA signal [32]: 0.86

B1: DOM1h-131-202 (other)
VH: EVQLLESGGGLVQPGGSLRLSCAASGFTFAHETMVWVRQAPGKGLEWVSHIPPDGQDPFYADSVKGRFTISRDNSKNTLYLQMNSLRAEDTAVYYCALLPKRGPWFDYWGQGTLVTVSS
notes: also called GSK1922567A
- IC50 (read off the curve) (TNFR1-FC fusion): ~0.2 nM
